Measurements published in the Human Domainome abundance scans (Beltran et al. 2025).
± gives the uncertainty stated by the source.

B1: LIM and senescent cell antigen-like-containing domain protein 2, residues 13 to 71; numbered along this chain, Q7Z4I7 (parent)
chain: AVCQRCQARFSPAERIVNSNGELYHEHCFVCAQCFRPFPEGLFYEFEGRKYCEHDFQML

Variants of: B1
Assay: abundance fitness (aPCA) (normalised: wild type 0, dead -1); higher = more abundant; growth selection in yeast, the domain comes from the species named
Details: Homo sapiens

Variant	abundance fitness
AVCQRCQARFSPAERIVNSNGELYHEHCFVCYQCFRPFPEGLFYEFEGRKYCEHDFQML	0.147 ± 0.079
AVCQRCQARFSPAERIVNSNGELYHEHCFVCCQCFRPFPEGLFYEFEGRKYCEHDFQML	-0.354 ± 0.24
AVCQRCQARFSPAERIVNSNGELYHEHCFVCSQCFRPFPEGLFYEFEGRKYCEHDFQML	-0.172 ± 0.058
AVCQRCQARFSPAERIVNSNGELYHEHCFVCLQCFRPFPEGLFYEFEGRKYCEHDFQML	-0.322 ± 0.045
AVCQRCQARFSPAERIVNSNGELYHEHCFVCQQCFRPFPEGLFYEFEGRKYCEHDFQML	0.083 ± 0.064
AVCQRCQARFSPAERIVNSNGELYHEHCFVCIQCFRPFPEGLFYEFEGRKYCEHDFQML	-0.117 ± 0.072
AVCQRCQARFSPAERIVNSNGELYHEHCFVCDQCFRPFPEGLFYEFEGRKYCEHDFQML	-0.026 ± 0.068
AVCQRCQARFSPAERIVNSNGELYHEHCFVCRQCFRPFPEGLFYEFEGRKYCEHDFQML	-0.26 ± 0.055
AVCQRCQARFSPAERIVNSNGELYHEHCFVCHQCFRPFPEGLFYEFEGRKYCEHDFQML	0.118 ± 0.083
AVCQRCQARFSPAERIVNSNGELYHEHCFVCEQCFRPFPEGLFYEFEGRKYCEHDFQML	0.014 ± 0.046
AVCQRCQARFSPAERIVNSNGELYHEHCFVCVQCFRPFPEGLFYEFEGRKYCEHDFQML	-0.001 ± 0.042
AVCQRCQARFSPAERIVNSNGELYHEHCFVCKQCFRPFPEGLFYEFEGRKYCEHDFQML	-0.274 ± 0.065
AVCQRCQARFSPAERIVNSNGELYHEHCFVCMQCFRPFPEGLFYEFEGRKYCEHDFQML	-0.099 ± 0.062
AVCQRCQARFSPAERIVNSNGELYHEHCFVCWQCFRPFPEGLFYEFEGRKYCEHDFQML	-0.149 ± 0.064
AVCQRCQARFSPAERIVNSNGELYHEHCFVCAQCFIPFPEGLFYEFEGRKYCEHDFQML	-0.232 ± 0.1
AVCQRCQARFSPAERIVNSNGELYHEHCFVCAQCFLPFPEGLFYEFEGRKYCEHDFQML	-0.176 ± 0.057
AVCQRCQARFSPAERIVNSNGELYHEHCFVCAQCFHPFPEGLFYEFEGRKYCEHDFQML	-0.024 ± 0.13
AVCQRCQARFSPAERIVNSNGELYHEHCFVCAQCFSPFPEGLFYEFEGRKYCEHDFQML	-0.008 ± 0.064
AVCQRCQARFSPAERIVNSNGELYHEHCFVCAQCFQPFPEGLFYEFEGRKYCEHDFQML	0.063 ± 0.086
AVCQRCQARFSPAERIVNSNGELYHEHCFVCAQCFAPFPEGLFYEFEGRKYCEHDFQML	-0.196 ± 0.079
AVCQRCQARFSPAERIVNSNGELYHEHCFVCAQCFCPFPEGLFYEFEGRKYCEHDFQML	-0.026 ± 0.094
AVCQRCQARFSPAERIVNSNGELYHEHCFVCAQCFMPFPEGLFYEFEGRKYCEHDFQML	-0.042 ± 0.083
AVCQRCQARFSPAERIVNSNGELYHEHCFVCAQCFKPFPEGLFYEFEGRKYCEHDFQML	0.094 ± 0.085

Variant	abundance fitness
AVCQRCQARFSPAERIVNSNGELYHEHCFVCAQCFFPFPEGLFYEFEGRKYCEHDFQML	-0.298 ± 0.15
AVCQRCQARFSPAERIVNSNGELYHEHCFVCAQCFPPFPEGLFYEFEGRKYCEHDFQML	-0.625 ± 0.14
AVCQRCQARFSPAERIVNSNGELYHEHCFVCAQCFNPFPEGLFYEFEGRKYCEHDFQML	-0.156 ± 0.12
AVCQRCQARFSPAERIVNSNGELYHEHCFVCAQCFDPFPEGLFYEFEGRKYCEHDFQML	-0.095 ± 0.14
AVCQRCQARFSPAERIVNSNGELYHEHCFVCAQCFEPFPEGLFYEFEGRKYCEHDFQML	0.01 ± 0.076
AVCQRCQARFSPAERIVNSNGELYHEHCFVCAQCFTPFPEGLFYEFEGRKYCEHDFQML	-0.268 ± 0.097
AVCQRCQARFSPAERIVNSNGELYHEHCFVCAQCFGPFPEGLFYEFEGRKYCEHDFQML	-0.064 ± 0.061
AVCQRCQARFSPAERIVNSNGELYHEHCFVCATCFRPFPEGLFYEFEGRKYCEHDFQML	0.012 ± 0.081
AVCQRCQARFSPAERIVNSNGELYHEHCFVCAECFRPFPEGLFYEFEGRKYCEHDFQML	0.044 ± 0.1
AVCQRCQARFSPAERIVNSNGELYHEHCFVCAKCFRPFPEGLFYEFEGRKYCEHDFQML	-0.092 ± 0.13
AVCQRCQARFSPAERIVNSNGELYHEHCFVCAVCFRPFPEGLFYEFEGRKYCEHDFQML	0.071 ± 0.069
AVCQRCQARFSPAERIVNSNGELYHEHCFVCANCFRPFPEGLFYEFEGRKYCEHDFQML	0.053 ± 0.14
AVCQRCQARFSPAERIVNSNGELYHEHCFVCAFCFRPFPEGLFYEFEGRKYCEHDFQML	0.285 ± 0.12
AVCQRCQARFSPAERIVNSNGELYHEHCFVCAMCFRPFPEGLFYEFEGRKYCEHDFQML	-0.068 ± 0.082
AVCQRCQARFSPAERIVNSNGELYHEHCFVCAACFRPFPEGLFYEFEGRKYCEHDFQML	0.024 ± 0.065
AVCQRCQARFSPAERIVNSNGELYHEHCFVCARCFRPFPEGLFYEFEGRKYCEHDFQML	-0.077 ± 0.091
AVCQRCQARFSPAERIVNSNGELYHEHCFVCAYCFRPFPEGLFYEFEGRKYCEHDFQML	-0.107 ± 0.14
AVCQRCQARFSPAERIVNSNGELYHEHCFVCACCFRPFPEGLFYEFEGRKYCEHDFQML	-0.145 ± 0.28
AVCQRCQARFSPAERIVNSNGELYHEHCFVCALCFRPFPEGLFYEFEGRKYCEHDFQML	-0.195 ± 0.071
AVCQRCQARFSPAERIVNSNGELYHEHCFVCAPCFRPFPEGLFYEFEGRKYCEHDFQML	-0.58 ± 0.15
AVCQRCQARFSPAERIVNSNGELYHEHCFVCASCFRPFPEGLFYEFEGRKYCEHDFQML	-0.135 ± 0.076
AVCQRCQARFSPAERIVNSNGELYHEHCFVCAWCFRPFPEGLFYEFEGRKYCEHDFQML	-0.206 ± 0.13
